Measurements taken from article PMC2737813 (Cell host & microbe, 2009).

Molecular target: MBP-TRIM25-FLAG (human, UniProt Q14258 1-630)
Assay: pull-down

Chain of MBP-TRIM25-FLAG (Q14258 whole entry): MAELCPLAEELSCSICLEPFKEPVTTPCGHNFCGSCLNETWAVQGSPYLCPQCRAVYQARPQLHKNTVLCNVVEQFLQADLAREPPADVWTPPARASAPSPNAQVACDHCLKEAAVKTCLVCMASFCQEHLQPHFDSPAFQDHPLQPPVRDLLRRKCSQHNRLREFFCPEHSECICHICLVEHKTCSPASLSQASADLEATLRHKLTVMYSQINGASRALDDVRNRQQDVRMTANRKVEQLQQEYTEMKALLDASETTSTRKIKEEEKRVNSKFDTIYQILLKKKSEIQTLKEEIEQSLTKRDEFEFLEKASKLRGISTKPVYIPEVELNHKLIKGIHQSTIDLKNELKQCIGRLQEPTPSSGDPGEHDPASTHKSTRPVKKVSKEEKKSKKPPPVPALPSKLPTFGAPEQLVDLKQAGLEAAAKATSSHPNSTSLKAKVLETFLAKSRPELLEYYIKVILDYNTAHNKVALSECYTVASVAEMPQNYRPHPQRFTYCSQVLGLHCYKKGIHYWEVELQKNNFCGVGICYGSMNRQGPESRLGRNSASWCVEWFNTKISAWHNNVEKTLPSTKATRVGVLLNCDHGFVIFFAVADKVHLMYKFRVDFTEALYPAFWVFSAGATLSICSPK

B1: GST-PR8 wt NS1 (natural protein)
chain: MDPNTVSSFQVDCFLWHVRKRVADQELGDAPFLDRLRRDQKSLRGRGSTLGLDIETATRAGKQIVERILKEESDEALKMTMASVPASRYLTDMTLEEMSRDWSMLIPKQKVAGPLCIRMDQAIMDKNIILKANFSVIFDRLETLILLRAFTEEGAIVGEISPLPSLPGHTAEDVKNAVGVLIGGLEWNDNTVRVSETLQRFAWRSSNENGRPPLTPKQKREMAGTIRSEV
- binding result: binds
